Assay results: the supplement of paper PMC10567573

B1: KCNK9 (parent)
chain: CFITLTTIGFGDYVALQTKGALQK
B2: EPB41L3 (parent)
chain: SMQCKVILLDGSEYTCDVEKRSRG

Variants of: B1
Experiment: protein stability index of a GFP-peptide fusion (GPS, HEK-293T) (PSI 1-6); higher = more stable
Conditions: c terminus: a fixed tail appended
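Also: lentivirally expressed fusions sorted by FACS into six bins by GFP to DsRed ratio, PSI derived from sequencing read proportions per bin multiplied by bin number.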

Protein stability index: each site, then its substitutions
Q23: T 3.26 | S 2.2 | N 2.43 | V 4.51 | Y 2.42 | P 2.14 | R 1.72 | W 2.73 | K 2.96 | L 3.52
K24: C 2.9 | G 2.28 | N 3.29 | I 2.09 | V 3.03 | Q 2.33 | D 3.71 | A 2.85 | T 3.42 | F 3.25 | Y 3.16 | M 2.88 | E 3.56 | L 2.51 | S 3.33 | H 2.47 | P 2.96

Variants of: B2
Experiment: as above
Conditions: c terminus: a fixed tail appended

Protein stability index: each site, then its substitutions
L9: T 3.51 | P 3.71 | N 3.92 | H 3.44 | S 2.85 | R 3.03 | F 2.83 | A 3.6 | C 2.79 | I 2.97 | D 4.09 | Q 3.94 | G 3.72 | Y 2.41 | K 3.81 | V 3.31 | E 4.28 | M 3.2
I7: Y 2.15 | A 3.03 | H 3.03 | L 2.63 | N 3.43 | S 3.91 | R 3.45 | Q 3.13 | F 2.39 | W 3.62 | T 3.64 | D 4.08
M2: C 2.08 | G 3.36 | T 3.53 | R 2.72 | D 3.38 | A 3.24 | Q 3.64 | V 2.6 | Y 1.5 | E 4.4 | K 3.24 | H 2.9 | P 3.42 | N 4.06 | I 2.12 | F 2.55 | S 3.2 | L 2.55
V18: C 2.29 | M 2.62 | N 3.24 | H 2.72 | K 4.16 | Q 3.83 | F 2.1 | D 3.36 | T 3.38 | E 3.18 | A 3.5 | P 3.57 | I 2.82 | S 3.69 | L 1.79 | R 2.92 | Y 2.29 | G 2.96
S1: A 2.86 | Q 2.64 | K 1.93 | V 1.78 | H 2.19 | F 2 | W 2 | D 3.27 | C 1.74 | T 1.92 | M 3.46 | L 2.2 | P 3.04 | Y 1.37 | I 1.93 | R 1.95 | N 2.34 | G 2.37 | E 3.32
L8: F 4.39 | R 2.83 | E 4.05 | S 3.79 | H 3.66 | N 4.24 | I 2.17 | T 2.67 | P 4.33 | Y 3.13 | Q 4.25 | K 3.43 | C 3.13 | M 3.13 | D 4.41 | A 3.31
E19: C 2.13 | H 1.73 | A 2.17 | D 2.19 | F 1.19 | G 2.51
K5: E 3.48 | A 3.27 | T 2.54 | C 1.77 | W 2.59 | M 1.43 | H 2.39 | S 3.04 | L 1.31 | P 3.85 | Y 3.16 | R 2.06 | Q 3.06 | D 3.96 | F 1.58 | G 3.57 | N 3.06
D10: A 2.07 | M 1.5 | R 2.03 | S 2.04 | F 2.14 | H 1.5 | E 2.24 | Q 2.41 | K 3.15 | W 1.09 | P 2.66 | N 1.89 | T 2.75 | Y 1.77 | L 1.67 | V 1.62 | G 2.14
V6: D 4.38 | G 3.61 | T 3.71 | I 2.2 | N 4.5 | S 4.07 | R 3.62 | H 2.56 | P 4.68 | L 2.44 | C 2.07 | M 3.36 | A 2.1 | W 2.59 | E 4.55 | F 2.76 | Q 2.97 | Y 2.95
Y14: G 3.69 | R 3.66 | N 3.7 | A 3.7 | E 3.83 | L 1.84 | T 2.81 | C 2.67 | P 3.66 | F 2.21 | K 3.97 | S 4.43 | W 1.9 | D 3.81 | V 3.15 | I 2.74
S12: R 2.99 | K 3.51 | D 3.08 | N 2.91 | T 2.16 | V 2.05 | Q 2.92 | Y 1.78 | W 1.94 | P 2.4 | H 2.34 | I 2.39 | G 2.9 | E 4.38 | M 1.98 | C 2.14 | A 3.39
G11: H 3.67 | V 2.64 | A 2.58 | I 1.99 | M 1.73 | K 2.94 | C 2.41 | W 1.68 | N 3.26 | Q 2.87 | Y 2.51 | E 2.03 | D 2.98 | T 2.76 | L 2.75 | P 3.22 | R 2.64
Q3: H 2.83 | T 2.48 | W 1.19 | V 2.63 | C 2.16 | M 3.35 | P 3.63 | L 1.49 | Y 2.07 | E 3.81 | R 2.37 | S 2.98 | D 3.75 | A 2.9 | G 2.38 | N 2.76 | I 2.44 | F 3.2 | K 2.68
E13: L 2.7 | P 3.48 | N 1.75 | D 2.37 | H 2.75 | K 2.41 | V 1.86 | Q 2.98 | M 2.09 | Y 1.9 | G 2.79 | W 2.05 | T 2.33 | I 1.51 | A 2.14 | C 1.81 | S 3.27
D17: I 1.89 | E 2.84 | R 3.07 | S 2.21 | M 1.1 | P 3.08 | L 3.38 | N 2.36 | Y 1.61 | T 2.59 | W 2.06 | G 2.34 | H 2.51 | C 2.45
C16: W 2.01 | N 2.84 | E 3.52 | I 2.77 | K 3.07 | G 3.19 | T 2.55 | L 2.23 | A 2.95 | D 3.44 | S 2.65 | F 2.66 | P 2.66 | V 3.7 | M 2.41 | H 3.53
T15: S 3.03 | Q 3.19 | V 2.06 | P 3.37 | M 2.49 | E 2.45 | F 1.63 | H 1.98 | L 1.67 | I 2.67 | D 3.38 | Y 2.58 | R 2.45
C4: F 2.03 | P 3.94 | L 2.04 | R 4.51 | N 3.07 | Q 4.28 | A 3.93 | E 4.48 | Y 2.29 | H 3.46 | I 2.41 | D 4.23 | T 3.61 | M 2.6 | G 4.33 | W 2.32 | V 3.17 | K 4.37 | S 3.78
